In patent US20250250608A1, “METHODS AND COMPOSITIONS FOR ASSAYING BETA-HEXOSAMINIDASE ENZYMATIC ACTIVITY VIA MASS SPECTROMETRY” (GelbChem, LLC, priority 2024, published 2025):

Substrate: CC(=O)NC1C(Oc2ccc(NC(=O)CCN(CCCCNC(=O)c3ccccc3)C(=O)OC(C)(C)C)cc2)OC(COS(=O)(=O)O)C(O)C1O
Assay: Enzyme kinetics of HexA with the HexA substrate, endogenous enzyme from healthy adult dried blood spots, LC-MS/MS detection
Type: biochemical
Details: other: endogenous enzyme from healthy adult dried blood spots
Experimental: 3.2 mm punches were taken from dried blood samples. The punches were added into a well of a multiwell plate and in particular, a 1.0 mL deep-well 96-well plate. Following, 30 μL of the duplex assay cocktail described above was added to each well. The plate was sealed with a silicone sealing mat and shaken at 250 rpm for 4 hours at 37° C. in an orbital shaker incubator. After incubation, the enzymatic reaction was quenched by adding 100 μL of methanol: ethyl acetate (1:1) and mixed by pipetting up and down ˜10 times. Analytes were extracted by adding sodium chloride solution (0.5 M, 200 μL) and ethyl acetate (400 μL) to each well and mixed by pipetting up and down ˜10 times. […]
Analytes were detected via a WATERS™ Xevo TQ triple-quadrupole mass spectrometer. […] The following MRM traces were monitored for quantitation: HexA enzymatic reaction product (456.5>356.1), HexA/B enzymatic reaction product (461.5>361.2), and internal standard (465.5>357.1). […]
Enzyme kinetics of HexA and HexA/B were measured in relationship to the HexA substrate and HexA/B substrate, respectively, using endogenous enzymes from healthy adult dried blood spots. […]
The reaction rate for each substrate at different substrate concentrations was measured and the relationship found to be hyperbolic.

B1: HexA (Homo sapiens) (protein)
chain: TLEKNVLVVSVVTPGCNQLPTLESVENYTLTINDDQCLLLSETVWGALRGLETFSQLVWKSAEGTFFINKTEIEDFPRFPHRGLLLDTSRHYLPLSSILDTLDVMAYNKLNVFHWHLVDDPSFPYESFTFPELMRKGSYNPVTHIYTAQDVKEVIEYARLRGIRVLAEFDTPGHTLSWGPGIPGLLTPCYSGSEPSGTFGPVNPSLNNTYEFMSTFFLEVSSVFPDFYLHLGGDEVDFTCWKSNPEIQDFMRKKGFGEDFKQLESFYIQTLLDIVSSYGKGYVVWQEVFDNKVKIQPDTIIQVWREDIPVNYMKELELVTKAGFRALLSAPWYLNRISYGPDWKDFYIVEPLAFEGTPEQKALVIGGEACMWGEYVDNTNLVPRLWPRAGAVAERLWSNKLTSDLTFAYERLSHFRCELLRRGVQAQPLNVGFCEQEFEQT
notes: using endogenous enzymes from healthy adult dried blood spots; from tissue; host or cells: dried blood spots from healthy adults/individuals (3.2 mm punches)
In the case of B1, the Km is reported as 4,051 μM.
